According to patent US20150346192A1:

Assays:
[1] = biological target: hypothetical protein LOC297607 (rat) (UniProt D4A770); test: IP of RBL-2H3 lysate on nickel beads, MS/MS ProtScore; 1st of 3 experiments
[2] = biological target: hypothetical protein LOC297607 (rat) (UniProt D4A770); test: IP of RBL-2H3 lysate on nickel beads, MS/MS ProtScore; 2nd of 3 experiments
[3] = biological target: hypothetical protein LOC297607 (rat) (UniProt D4A770); test: IP of RBL-2H3 lysate on nickel beads, MS/MS ProtScore; 3rd of 3 experiments

Sequence of hypothetical protein LOC297607 (rat) (D4A770 whole entry): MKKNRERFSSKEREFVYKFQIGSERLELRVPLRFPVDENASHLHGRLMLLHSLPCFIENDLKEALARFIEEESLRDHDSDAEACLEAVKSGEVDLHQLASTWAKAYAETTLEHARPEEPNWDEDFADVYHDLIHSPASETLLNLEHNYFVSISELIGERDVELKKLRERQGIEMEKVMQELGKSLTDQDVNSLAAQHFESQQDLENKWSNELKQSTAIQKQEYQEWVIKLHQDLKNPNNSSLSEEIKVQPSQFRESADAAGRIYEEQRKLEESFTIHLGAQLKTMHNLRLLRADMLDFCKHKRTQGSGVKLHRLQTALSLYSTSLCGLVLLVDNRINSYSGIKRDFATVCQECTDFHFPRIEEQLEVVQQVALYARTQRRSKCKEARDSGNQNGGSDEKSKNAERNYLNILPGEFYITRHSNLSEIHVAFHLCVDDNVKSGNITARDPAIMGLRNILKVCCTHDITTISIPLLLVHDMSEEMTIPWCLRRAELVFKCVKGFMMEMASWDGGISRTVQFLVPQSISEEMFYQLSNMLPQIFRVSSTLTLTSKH

irrelevant VH was tested, and the Protscore IP [1] was 0, the Protscore IP [2] was 0 and the Protscore IP [3] was 2.
